# Reference: IntAct's records for PubMed 23386615
# B1: Serine/threonine-protein kinase 4 (Homo sapiens), Q13043 (parent)
# chain: METVQLRNPPRRQLKKLDEDSLTKQPEEVFDVLEKLGEGSYGSVYKAIHKETGQIVAIKQVPVESDLQEIIKEISIMQQCDSPHVVKYYGSYFKNTDLWIVMEYCGAGSVSDIIRLRNKTLTEDEIATILQSTLKGLEYLHFMRKIHRDIKAGNILLNTEGHAKLADFGVAGQLTDTMAKRNTVIGTPFWMAPEVIQEIGYNCVADIWSLGITAIEMAEGKPPYADIHPMRAIFMIPTNPPPTFRKPELWSDNFTDFVKQCLVKSPEQRATATQLLQHPFVRSAKGVSILRDLINEAMDVKLKRQESQQREVDQDDEENSEEDEMDSGTMVRAVGDEMGTVRVASTMTDGANTMIEHDDTLPSQLGTMVINAEDEEEEGTMKRRDETMQPAKPSFLEYFEQKEKENQINSFGKSVPGPLKNSSDWKIPQDGDYEFLKSWTVEDLQKRLLALDPMMEQEIEEIRQKYQSKRQPILDAIEAKKRRQQNF
# partner: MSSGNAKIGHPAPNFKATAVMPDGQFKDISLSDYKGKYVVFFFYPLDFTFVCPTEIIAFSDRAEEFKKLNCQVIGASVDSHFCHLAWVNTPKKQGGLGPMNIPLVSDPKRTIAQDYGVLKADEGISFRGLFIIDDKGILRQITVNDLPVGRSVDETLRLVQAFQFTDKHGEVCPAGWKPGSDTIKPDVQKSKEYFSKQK
# B2: Peroxiredoxin-1 (Homo sapiens), Q06830 (parent)
# chain: B1 partner
# partner: B1 chain
# Variants of: B1
# Settings: with prdx1_human PRDX1, Q06830
row,Variant,effect of a mutation on the interaction
1,METVQLRNPPRRQLKKLDEDSLTKQPEEVFDVLEKLGEGSYGSVYKAIHKETGQIVAIRQVPVESDLQEIIKEISIMQQCDSPHVVKYYGSYFKNTDLWIVMEYCGAGSVSDIIRLRNKTLTEDEIATILQSTLKGLEYLHFMRKIHRDIKAGNILLNTEGHAKLADFGVAGQLTDTMAKRNTVIGTPFWMAPEVIQEIGYNCVADIWSLGITAIEMAEGKPPYADIHPMRAIFMIPTNPPPTFRKPELWSDNFTDFVKQCLVKSPEQRATATQLLQHPFVRSAKGVSILRDLINEAMDVKLKRQESQQREVDQDDEENSEEDEMDSGTMVRAVGDEMGTVRVASTMTDGANTMIEHDDTLPSQLGTMVINAEDEEEEGTMKRRDETMQPAKPSFLEYFEQKEKENQINSFGKSVPGPLKNSSDWKIPQDGDYEFLKSWTVEDLQKRLLALDPMMEQEIEEIRQKYQSKRQPILDAIEAKKRRQQNF [K59R],increasing interaction

# Variants of: B2
# Settings: with stk4_human STK4, Q13043
row,Variant,effect of a mutation on the interaction
1,MSSGNAKIGHPAPNFKATAVMPDGQFKDISLSDYKGKYVVFFFYPLDFTFVSPTEIIAFSDRAEEFKKLNCQVIGASVDSHFCHLAWVNTPKKQGGLGPMNIPLVSDPKRTIAQDYGVLKADEGISFRGLFIIDDKGILRQITVNDLPVGRSVDETLRLVQAFQFTDKHGEVSPAGWKPGSDTIKPDVQKSKEYFSKQK [C52S;C173S],decreasing interaction
